In article PMC6356897 one finds pKa data, which are given here for 2 substances.

Data set [1] concerns the target Cys36 (UniProt position 37, FTATWCGPCKM). The data set can be described thus: chemical modification (iodoacetamide alkylation) with MALDI-TOF mass spectrometry. Conditions: not stated for the alkylation step (pre-reduction at 25 °C); 200 mM acetate/acetic acid (pH 3.5-5.5); 100 mM phosphate (pH 6.0-8.0); 100 mM HEPES-NaOH (pH 7.5-8.5); 100 mM glycine (above pH 8.5); carry-over of 50 mM phosphate pH 7.1 and TCEP from pre-reduction; fully reduced (TCEP), both active-site cysteines free thiols.

Data set [2] addresses Cys39 (UniProt position 40, TWCGPCKMIAP). The data set is described as above. Conditions: not stated for the alkylation step (pre-reduction at 25 °C); 200 mM acetate/acetic acid (pH 3.5-5.5); 100 mM phosphate (pH 6.0-8.0); 100 mM HEPES-NaOH (pH 7.5-8.5); 100 mM glycine (above pH 8.5); carry-over of 40 mM phosphate pH 7.1 from pre-alkylation; Cys36 pre-alkylated (carbamidomethylated), Cys39 free thiol.

Take “Thioredoxin h1 (CrTRXh1) (Chlamydomonas reinhardtii)”: in data set [1], the pKa is given as 6.63 ± 0.13. For “Thioredoxin h1 (CrTRXh1), monoalkylated at Cys36 (CrTRXh1-CAM) (Chlamydomonas reinhardtii)”, the pKa in data set [2] was 9.53 ± 0.12.

The pKa is the negative logarithm of the acid dissociation constant.
